Assay results reported in patent US20110118131A1 (published 2011).
Numbering of substitutions follows the chain as printed. Names and notes keep the numbering of the source.

T1: Ep-CAM (UniProt P16422 24-265, limits assumed)
T1 construct: Amine coupled to a CM5 chip in the Biacore assays
T1 sequence (looked up): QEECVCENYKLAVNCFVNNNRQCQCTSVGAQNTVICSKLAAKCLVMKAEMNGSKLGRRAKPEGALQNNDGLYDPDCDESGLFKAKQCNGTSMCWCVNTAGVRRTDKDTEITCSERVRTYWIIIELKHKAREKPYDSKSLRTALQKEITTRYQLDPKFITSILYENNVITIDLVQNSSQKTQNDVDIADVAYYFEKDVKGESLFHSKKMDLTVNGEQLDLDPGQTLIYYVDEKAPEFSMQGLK

B1: ING-1 light chain Y54R (Fab, V domains shown)
VH: QIQLVQSGPELKKPGETVKISCKASGYTFTKYGMNWVKQAPGKGLKWMGWINTYTEEPTYGDDFKGRFAFSLETSASTANLQINNLKSEDTATYFCARFGSAVDYWGQGTSVTVSS
VL: DIVMTQAAFSNPVTLGTSGSISCRSSKSLLHSNGITYLYWYLQKPGQSPQLLIRQMSNLASGVPDRFSSSGSGTDFTLRISRVEAEDVGVYYCAQNLELPRTFGGGTKLEMKR
notes: Fab, periplasmic extract
B2: ING-1 light chain Y54S (Fab, V domains shown)
VH: B1 VH
VL: B1 VL with R54S
notes: Fab, periplasmic extract
B3: XPA23 light chain S53T (Fab, V domains shown)
VH: EVQLLESGGGLVQPGGSLRLSCAASGFTFSKYFMFWVRQAPGKGLEWVSVISPSGGMTRYADSVKGRFTISRDNSKNTLYLQMNSLRAEDTAVYYCARVGYGGNSDYWGQGTLVTVSS
VL: DIQMTQSPSSVSASVGDRLTIICRASQDINRWLAWYQQTPGNAPKLLIHSATTLQSGVPSRFSGSGSGTDFTLTINSLQPEDFATYYCQQADSFPLTFGGGTKVEIK
notes: Single light chain substitution; Fab in periplasmic extract; also called C5A (XPA23) S53T
B4: XPA23 light chain P95A (Fab, V domains shown)
VH: B3 VH
VL: B3 VL with T53S, P95A
notes: Single light chain substitution; Fab in periplasmic extract; also called C5A (XPA23) P95A
B5: XPA23 light chain P95G (Fab, V domains shown)
VH: B3 VH
VL: B3 VL with T53S, P95G
notes: Single light chain substitution; Fab in periplasmic extract; also called C5A (XPA23) P95G
B6: XPA23 light chain L96I (Fab, V domains shown)
VH: B3 VH
VL: B3 VL with T53S, L96I
notes: Single light chain substitution; Fab in periplasmic extract; also called C5A (XPA23) L96I
B7: XPA23 light chain F94I (Fab, V domains shown)
VH: B3 VH
VL: B3 VL with T53S, F94I
notes: Single light chain substitution; Fab in periplasmic extract; also called C5A (XPA23) F94I
B8: XPA23 light chain L96P (Fab, V domains shown)
VH: B3 VH
VL: B3 VL with T53S, L96P
notes: Single light chain substitution; Fab in periplasmic extract; also called C5A (XPA23) L96P
B9: XPA23 light chain D92A (Fab, V domains shown)
VH: B3 VH
VL: B3 VL with T53S, D92A
notes: Single light chain substitution; Fab in periplasmic extract; also called C5A (XPA23) D92A
B10: XPA23 light chain D92G (Fab, V domains shown)
VH: B3 VH
VL: B3 VL with T53S, D92G
notes: Single light chain substitution; Fab in periplasmic extract; also called C5A (XPA23) D92G
B11: XPA23 light chain S53P (Fab, V domains shown)
VH: B3 VH
VL: B3 VL with T53P
notes: Single light chain substitution; Fab in periplasmic extract; also called C5A (XPA23) S53P
B12: XPA23 light chain A91G (Fab, V domains shown)
VH: B3 VH
VL: B3 VL with T53S, A91G
notes: Single light chain substitution; Fab in periplasmic extract; also called C5A (XPA23) A91G
B13: XPA23 light chain A91L (Fab, V domains shown)
VH: B3 VH
VL: B3 VL with T53S, A91L
notes: Single light chain substitution; Fab in periplasmic extract; also called C5A (XPA23) A91L
B14: XPA23 light chain F94L (Fab, V domains shown)
VH: B3 VH
VL: B3 VL with T53S, F94L
notes: Single light chain substitution; Fab in periplasmic extract; also called C5A (XPA23) F94L
B15: XPA23 light chain P95V (Fab, V domains shown)
VH: B3 VH
VL: B3 VL with T53S, P95V
notes: Single light chain substitution; Fab in periplasmic extract; also called C5A (XPA23) P95V
B16: XPA23 light chain L96A (Fab, V domains shown)
VH: B3 VH
VL: B3 VL with T53S, L96A
notes: Single light chain substitution; Fab in periplasmic extract; also called C5A (XPA23) L96A
B17: XPA23 light chain P95T (Fab, V domains shown)
VH: B3 VH
VL: B3 VL with T53S, P95T
notes: Single light chain substitution; Fab in periplasmic extract; also called C5A (XPA23) P95T
B18: XPA23 light chain D92L (Fab, V domains shown)
VH: B3 VH
VL: B3 VL with T53S, D92L
notes: Single light chain substitution; Fab in periplasmic extract; also called C5A (XPA23) D92L
B19: XPA23 light chain F94A (Fab, V domains shown)
VH: B3 VH
VL: B3 VL with T53S, F94A
notes: Single light chain substitution; Fab in periplasmic extract; also called C5A (XPA23) F94A
B20: XPA23 light chain S53V (Fab, V domains shown)
VH: B3 VH
VL: B3 VL with T53V
notes: Single light chain substitution; Fab in periplasmic extract; also called C5A (XPA23) S53V
B21: XPA23 light chain A91P (Fab, V domains shown)
VH: B3 VH
VL: B3 VL with T53S, A91P
notes: Single light chain substitution; Fab in periplasmic extract; also called C5A (XPA23) A91P
B22: XPA23 light chain S53G (Fab, V domains shown)
VH: B3 VH
VL: B3 VL with T53G
notes: Single light chain substitution; Fab in periplasmic extract; also called C5A (XPA23) S53G
B23: XPA23 light chain F94V (Fab, V domains shown)
VH: B3 VH
VL: B3 VL with T53S, F94V
notes: Single light chain substitution; Fab in periplasmic extract; also called C5A (XPA23) F94V
B24: XPA23 light chain S53I (Fab, V domains shown)
VH: B3 VH
VL: B3 VL with T53I
notes: Single light chain substitution; Fab in periplasmic extract; also called C5A (XPA23) S53I
B25: XPA23 light chain D92I (Fab, V domains shown)
VH: B3 VH
VL: B3 VL with T53S, D92I
notes: Single light chain substitution; Fab in periplasmic extract; also called C5A (XPA23) D92I
B26: XPA23 light chain A91T (Fab, V domains shown)
VH: B3 VH
VL: B3 VL with T53S, A91T
notes: Single light chain substitution; Fab in periplasmic extract; also called C5A (XPA23) A91T
B27: XPA23 light chain A91V (Fab, V domains shown)
VH: B3 VH
VL: B3 VL with T53S, A91V
notes: Single light chain substitution; Fab in periplasmic extract; also called C5A (XPA23) A91V
B28: XPA23 light chain L96G (Fab, V domains shown)
VH: B3 VH
VL: B3 VL with T53S, L96G
notes: Single light chain substitution; Fab in periplasmic extract; also called C5A (XPA23) L96G
B29: XPA23 light chain F94T (Fab, V domains shown)
VH: B3 VH
VL: B3 VL with T53S, F94T
notes: Single light chain substitution; Fab in periplasmic extract; also called C5A (XPA23) F94T
B30: XPA23 light chain F94G (Fab, V domains shown)
VH: B3 VH
VL: B3 VL with T53S, F94G
notes: Single light chain substitution; Fab in periplasmic extract; also called C5A (XPA23) F94G
B31: XPA23 light chain S53L (Fab, V domains shown)
VH: B3 VH
VL: B3 VL with T53L
notes: Single light chain substitution; Fab in periplasmic extract; also called C5A (XPA23) S53L
B32: XPA23 light chain P95L (Fab, V domains shown)
VH: B3 VH
VL: B3 VL with T53S, P95L
notes: Single light chain substitution; Fab in periplasmic extract; also called C5A (XPA23) P95L
B33: XPA23 light chain A91I (Fab, V domains shown)
VH: B3 VH
VL: B3 VL with T53S, A91I
notes: Single light chain substitution; Fab in periplasmic extract; also called C5A (XPA23) A91I
B34: XPA23 light chain L96T (Fab, V domains shown)
VH: B3 VH
VL: B3 VL with T53S, L96T
notes: Single light chain substitution; Fab in periplasmic extract; also called C5A (XPA23) L96T
B35: XPA23 light chain S53A (Fab, V domains shown)
VH: B3 VH
VL: B3 VL with T53A
notes: Single light chain substitution; Fab in periplasmic extract; also called C5A (XPA23) S53A
B36: XPA23 light chain D92P (Fab, V domains shown)
VH: B3 VH
VL: B3 VL with T53S, D92P
notes: Single light chain substitution; Fab in periplasmic extract; also called C5A (XPA23) D92P
B37: XPA23 light chain P95I (Fab, V domains shown)
VH: B3 VH
VL: B3 VL with T53S, P95I
notes: Single light chain substitution; Fab in periplasmic extract; also called C5A (XPA23) P95I
B38: XPA23 light chain D92V (Fab, V domains shown)
VH: B3 VH
VL: B3 VL with T53S, D92V
notes: Single light chain substitution; Fab in periplasmic extract; also called C5A (XPA23) D92V
B39: XPA23 light chain F94P (Fab, V domains shown)
VH: B3 VH
VL: B3 VL with T53S, F94P
notes: Single light chain substitution; Fab in periplasmic extract; also called C5A (XPA23) F94P
B40: XPA23 light chain D92T (Fab, V domains shown)
VH: B3 VH
VL: B3 VL with T53S, D92T
notes: Single light chain substitution; Fab in periplasmic extract; also called C5A (XPA23) D92T

biological target: T1, Ep-CAM; assay: Biacore, Fab periplasmic extract

Binder | binding result | fold difference in affinity vs parental ING-1
B1 | no binding | –
B2 | – | 0.9 fold

biological target: IL-1β (UniProt P01584 117-269); assay: Biacore, Fab periplasmic extract on IL-1β

Binder | fold difference in affinity vs original | binding result
B3 | 0.95 fold | –
B4 | 3.83 fold | –
B5 | – | no binding
B6 | 0.67 fold | –
B7 | 0.88 fold | –
B8 | – | no binding
B9 | 0.4 fold | –
B10 | 0.26 fold | –
B11 | 4.92 fold | –
B12 | – | no binding
B13 | 0.39 fold | –
B14 | 0.55 fold | –
B15 | – | no binding
B16 | 0.26 fold | –
B17 | – | no binding
B18 | 0.14 fold | –
B19 | – | no binding
B20 | 1.42 fold | –
B21 | – | no binding

Binder | fold difference in affinity vs original | binding result
B22 | 1.03 fold | –
B23 | 0.2 fold | –
B24 | 1.42 fold | –
B25 | 0.33 fold | –
B26 | 0.67 fold | –
B27 | 0.51 fold | –
B28 | – | no binding
B29 | – | no binding
B30 | – | no binding
B31 | 0.99 fold | –
B32 | – | no binding
B33 | – | no binding
B34 | 0.06 fold | –
B35 | 1.07 fold | –
B36 | – | no binding
B37 | – | no binding
B38 | – | no binding
B39 | 0.17 fold | –
B40 | 0.34 fold | –
